For the assay, the target named is T1, TAT2 cell penetrating peptide.
T1 construct: Synthesized; two copies of a 9 amino acid TAT peptide
T1 peptide: RKKRRQRRRRKKRRQRRR
Nature of the assay: peptides mixed; uptake into MDA-MB-231 cells seen by fluorescence microscopy. On the procedure: B. Using 0.1 mg/ml C43-4-FITC, weak toxicity is only observed when combined with TAT2, which is worsened with DOX. An equal number of cells were treated with TAT2 and C43-4-FITC alone or in complex, +/−0.5 uM DOX. 24 hours later, 4 random fields of cells were counted and combined. C. MDA-MB-231 cells were treated with 0.001 mg/ml peptide/TAT2 complex for 12 hours, or left untreated. Lysates were prepared and assessed with the antibodies shown. Cyclin B—APC substrate; the PARP […] cleavage fragment is an early sign of apoptosis; induction of total PARP indicates DNA damage; TFPI1 is a nucleolar MDR marker. D. Mice growing MDA-MB-231 cells stably expressing pcDNA-C43-4, injected or left untreated, with the C43-4-FITC/TAT2 complex (n=2 each). 100 ul of 0.01 mg/ml C43-4-FITC peptide was mixed with 25 ul of 1 mg/ml TAT2. The entire 125 ul was given to the mouse using an intraperitoneal (IP) injection. 1 injection/mouse was given in this experiment.
The 20 amino acid C43-4 peptide was synthesized with a C-terminal FITC epitope to allow visualization of the peptide within the cell using fluorescent microscopy. The TAT2 cell penetrating peptide, encoding 2 copies of a 9 amino acid peptide ([…]; SEQ ID NO: 26) was also synthesized. […] After 24 hours, and prior to imaging, 4 independent microscope fields were counted for each sample and added together to get a total cell number. […]

This is an account of results in patent publication US20210101947A1 (UNIVERSITY OF SASKATCHEWAN, published 2021).

Primed or numbered codes have the meaning given here. No end group written: not given here. FITC′ = not defined here

B1: C43-4-FITC (peptide)
peptide: NGSSHNDLRVRRLTLISRLC-{FITC′}
notes: The synthesized 20 amino acid C43-4 peptide with a C-terminal FITC; also called C43-4-FITC peptide
Take B1: the binding result is recorded as “binds”.
